From patent US20060253917A1 (published 2006)
Ends that are not written are not given here.

Key:
OsMADS5 aa 50-160 = target: T1, OsMADS5 aa 50-160 (Oryza sativa, UniProt A2Y9P0 50-160); test: Y2H; output trait library
T1 construct: bait, Gal4 DBD fusion; also called PN20770
T1 sequence: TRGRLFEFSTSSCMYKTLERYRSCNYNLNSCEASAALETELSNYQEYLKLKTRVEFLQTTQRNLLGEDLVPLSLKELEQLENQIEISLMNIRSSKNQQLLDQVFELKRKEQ
Method in brief: (§1)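 Myriad Genetics Inc. (Salt Lake City, Utah) supplied the automated, high-throughput yeast two-hybrid assay used to detect protein-protein interactions. A bait clone encoding a defined amino-acid fragment of a rice protein was screened against a rice prey library, either the input trait or the output trait library. To identify the interacting proteins, prey clones were retrieved and their encoding sequences were compared against databases by BLAST.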

OsRAP1B aa 30-180 = target: T2, OsRAP1B aa 30-180 (Oryza sativa, UniProt Q10CQ1 30-180); test: Y2H; output trait library
T2 construct: bait, Gal4 DBD fusion; also called PN20232
T2 sequence: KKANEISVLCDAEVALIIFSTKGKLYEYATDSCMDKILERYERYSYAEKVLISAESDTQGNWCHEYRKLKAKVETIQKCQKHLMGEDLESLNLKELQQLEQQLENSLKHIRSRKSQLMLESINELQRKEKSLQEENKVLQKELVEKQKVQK
Method in brief: as §1

Os018989-4003 aa 90-220 = target: T3, Os018989-4003 aa 90-220 (Oryza sativa); test: Y2H; output trait library
T3 construct: bait, Gal4 DBD fusion; also called PN21044
T3 chain: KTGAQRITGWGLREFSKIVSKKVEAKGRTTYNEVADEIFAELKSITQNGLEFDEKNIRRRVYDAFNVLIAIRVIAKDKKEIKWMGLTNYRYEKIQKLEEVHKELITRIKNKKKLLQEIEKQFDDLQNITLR
Method in brief: as §1

OsCAA90866 aa 100-250 = target: T4, OsCAA90866 aa 100-250 (Oryza sativa); test: Y2H; input trait library
T4 construct: bait, Gal4 DBD fusion; also called PN20311; O. sativa Chilling-Inducible Protein CAA90866
T4 chain: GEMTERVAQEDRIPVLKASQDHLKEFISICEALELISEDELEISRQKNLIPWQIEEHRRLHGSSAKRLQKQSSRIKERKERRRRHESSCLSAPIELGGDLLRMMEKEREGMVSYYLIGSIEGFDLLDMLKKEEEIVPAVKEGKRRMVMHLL
Method in brief: as §1

OsCYCOS2 aa 50-233 = target: T5, OsCYCOS2 aa 50-233 (Oryza sativa, UniProt A2YH60 50-233); test: Y2H; input trait library
T5 construct: bait, Gal4 DBD fusion; also called PN20257; O. sativa Cyclin OsCYCOS2
T5 chain: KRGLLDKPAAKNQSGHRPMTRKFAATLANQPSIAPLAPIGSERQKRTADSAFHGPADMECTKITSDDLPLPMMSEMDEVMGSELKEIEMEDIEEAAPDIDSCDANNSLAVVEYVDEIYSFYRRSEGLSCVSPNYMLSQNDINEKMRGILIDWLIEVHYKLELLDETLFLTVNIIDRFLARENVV
Method in brief: as §1

Os005750-3115 aa 50-150 = target: T6, Os005750-3115 aa 50-150 (Oryza sativa, UniProt Q6IVC3 50-150); test: Y2H; output trait library
T6 construct: bait, Gal4 DBD fusion; also called PN20466; O. sativa bZIP Transcription Factor
T6 sequence: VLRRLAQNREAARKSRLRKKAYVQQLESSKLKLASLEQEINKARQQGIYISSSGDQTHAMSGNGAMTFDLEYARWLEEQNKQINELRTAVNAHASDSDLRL
Method in brief: as §1

OsPP2A-2 aa 150-308 = target: T7, OsPP2A-2 aa 150-308 (Oryza sativa, UniProt A2XN40 150-307); test: Y2H; output trait library
T7 construct: bait, Gal4 DBD fusion; also called PN20254
T7 sequence: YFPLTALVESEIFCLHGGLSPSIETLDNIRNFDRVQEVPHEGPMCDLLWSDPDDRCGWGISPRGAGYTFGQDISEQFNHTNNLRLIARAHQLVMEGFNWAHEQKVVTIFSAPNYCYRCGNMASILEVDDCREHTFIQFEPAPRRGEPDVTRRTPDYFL

B1: Os000564-1102 aa 72-172 (other)
chain: SIEQKEESRGNEDRVTLIKDYRGKIETELTKICDGILKLLESHLVPSSTAPESKVFYLKMKGDYYRYLAEFKTGAERKDAAENTMVAYKAAQDIALAELPP
notes: prey, AD fusion; also called PN20072; Hypothetical protein 000564-1102
- binding result (OsMADS5 aa 50-160): binds

B2: OsMADS8 aa 109-248 (other)
chain: RTQRNLLGEDLGTLGIKELEQLEKQLDSSLRHIRSTRTQHMLDQLTDLQRREQMLCEANKCLRRKLEESNQLHGQVWEHGATLLGYERQSPHAVQQVPPHGGNGFFHSLEAAAEPTLQIGFTPEQMNNSCVTAFMPTWLP
notes: prey, AD fusion; also called PN20778
- binding result (OsRAP1B aa 30-180): binds

B3: OsE2F1 aa 191-436 (other)
chain: LQAEVENLSLKEQALDERISDMREKLRGLTEDENNQRWLYVTEDDIKGLPCFQNETLIAIKAPHGTTLEVPDPDEAGDYLQRRYRIVLRSTMGPIDVYLVSQFDEKFEDLGGGATPSGHANVPKHQPTEVFNTTNAGVGQCSNSVAVDNNIQHSQTIPQDPSASHDFGGMTRIIPSDIDTDADYWLISEGDVSITDMWKTAPDVQWDESLDTDVFLSEDVRTPSSHNQQPSAVGGPQMQVSDMHKP
notes: prey, AD fusion; also called PN19758
- binding result (Os018989-4003 aa 90-220): binds

B4: OsPN23045 aa 240-287 (other)
chain: ILSKLVQAKELLKEYVEREKKKREERSETPKSNEAVTKFDGSLNSMRH
modifications: not fully specified
notes: prey, AD fusion; also called Novel Protein PN23045
- binding result (OsCAA90866 aa 100-250): binds

B5: PN23416 aa 130-176 (other)
chain: YFEKQRAMNQVRQRVFQQAVQGALGTLNSCLNTELHFRTIRANISIL
modifications: not fully specified
notes: prey, AD fusion; also called Chloroplast ATPase I Subunit
- binding result (OsCYCOS2 aa 50-233): binds

B6: OsAAG13633 aa 528-789 (other)
chain: LREQLRMQYECSAHLSIISDLEANVESLENELQEQSKRLEADIQEVMRAKVEQEQRAIKAEESLRKARWNNATTAERLQEEFKMLSSQVSSAFSANEQLLMQARKEAAELQLQKGQLEELLQKAQEDLGSIQEQHRVKVQQLLTLVDFKSKETDRLVMELKSKSDEFQNQKRCNEAKLSVLSEEIDQLKAKIENLSNERDNLFEENEQKDKELAANCQKDMFLQDRDAEIALLNKELASIKDQVQTYLEEINTLKSSKNEKE
notes: prey, AD fusion; also called PN25701
- binding result (Os005750-3115 aa 50-150): binds

B7: OsMADS13 aa 69-230 (other)
chain: RYKKAHACGSTSGAPLIEVNAQQYYQQESAKLRHQIQMLQNTNKHLVGDNVSNLSLKELKQLESRLEKGIAKIRARKNELLASEINYMAKREIELQNDNMDLRTKIAEEEQQLQQVTVARSAAMELQAAAAAQQQQQNPFAVAAAQLDMKCFFPLNLFEAAA
notes: prey, AD fusion; also called PN20668
- binding result (OsMADS5 aa 50-160): binds

B8: PN23297 aa 980-1160 (other)
chain: LRLTLERRLRAAGEEAKSVEILKRDKLIESLSAKCAAAKSAAQSEHDKNLLLQRQLDDSLREITMLRSSKIMTAEAERENSNLKNLVESLSKNNSSLEYELTSARKGSDATMKKLKDVEGKCNHLQQNLDKLQEKLTNMENENHVLRQKALNMSPLNNMPMTTKAFPQKFATPIGLPNGEQ
notes: prey, AD fusion; also called 15451591; O. sativa Putative Myosin Heavy Chain
- binding result (OsCYCOS2 aa 50-233): binds

B9: OsAAG13633 aa 612-738 (other)
chain: LSSQVSSAFSANEQLLMQARKEAAELQLQKGQLEELLQKAQEDLGSIQEQHRVKVQQLLTLVDFKSKETDRLVMELKSKSDEFQNQKRCNEAKLSVLSEEIDQLKAKIENLSNERDNLFEENEQKDK
notes: as for B6
- binding result (Os005750-3115 aa 50-150): binds

B10: OsPN22824 aa 393-494 (other)
chain: ASLVEQDLKERAAREARMGEQLRASEAARETLEAEMRRLRVQTEQWRKAAEAAPPVIGGDAHFVGHNGNGWGSPATMPDDCDDEGFGGKRKGAGIRMLGDLW
notes: prey, AD fusion; also called Novel Protein PN22824, Myosin heavy chain
- binding result (Os018989-4003 aa 90-220): binds

B11: Os011994-D16 aa 99-368 (other)
chain: FGPSFGGGGSSRGRRQRRGEDVIHPLKVSLEDLYNGTSKKLSLSRNVLCAKCKGKGSKSGASMRCPGCQGSGMKITIRQLGPSMIQQMQQPCNECKGTGESINEKDRCPGCKGEKVIQEKKVLEVHVEKGMQHNQKITFPGEADEAPDTVTGDIVFVLQQKDHSKFKRKGDDLFYEHTLSLTEALCGFQFVLTHLDNRQLLIKSNPGEVVKPDQFKAINDEGMPMYQRPFMKGKLYIHFTVEFPDSLAPEQCKALEAVLPPKPASQLTEM
notes: prey, AD fusion; also called PN20618; Hypothetical Protein 011994-D16, Similar to Z. mays DnaJ protein
- binding result (OsPP2A-2 aa 150-308): binds

B12: OsAAG13633 aa 538-738 (other)
chain: CSAHLSIISDLEANVESLENELQEQSKRLEADIQEVMRAKVEQEQRAIKAEESLRKARWNNATTAERLQEEFKMLSSQVSSAFSANEQLLMQARKEAAELQLQKGQLEELLQKAQEDLGSIQEQHRVKVQQLLTLVDFKSKETDRLVMELKSKSDEFQNQKRCNEAKLSVLSEEIDQLKAKIENLSNERDNLFEENEQKDK
notes: as for B6
- binding result (Os005750-3115 aa 50-150): binds

B13: OsPN23225 aa 639-792 (other)
chain: FGIRILDEAQQCIEELQCPEYYSEIVKEAINLALDKGPNFIDPLVRLLEHLHTKKIFKTEDLKTGCLLYAALLEDIGIDLPLAPALFGEVVARLSLSCSLSFEVVEEILKAVEDTYFRKGIFDAVMKTMGGNSSGQAILSSHAVVIDACNKLLK
notes: prey, AD fusion; also called Novel Protein PN23225, Similar to Tritticum aestivum Initiation Factor (iso)4f p82 Subunit
- binding result (OsCAA90866 aa 100-250): binds

B14: OsBAB56078 aa 51-155 (other)
chain: PGRFVRKCEKTEQLLRDCVGSDIEALEKGLFGSIGSFLDDAERMTNDFLKSFGVPSINERESSSFDGQPTGRHIGGQPAGRHIEEGTAKDTKQNDYAEFSSKITD
notes: prey, AD fusion; also called PN28517; O. sativa Hypothetical protein BAB56078
- binding result (OsMADS5 aa 50-160): binds

B15: OsAAG46136 aa 92-222 (other)
chain: FGVNSGTTRFALENQAINEATFRCPDELGWKPQRAPIVSSDGSISNLRKTTVPVNEVNKSLQQMGFDVAPSDDAGRFVCNYVYYQSLRFAEQRGIKSLFVHFPLFTTISEEVQMNFVATLLEVLASQNYAQ
notes: prey, AD fusion; also called PN23186; O. sativa Putative Pyrrolidone Carboxyl Peptidase
- binding result (OsCAA90866 aa 100-250): binds

B16: OsMADS8 aa 74-183 (other)
chain: SYGGPDTAIQNKENELVQSSRNEYLKLKARVENLQRTQRNLLGEDLGTLGIKELEQLEKQLDSSLRHIRSTRTQHMLDQLTDLQRREQMLCEANKCLRRKLEESNQLHGQ
notes: as for B2
- binding result (OsRAP1B aa 30-180): binds

B17: OsAAK72891 aa 339-651 (other)
chain: ELDLQEKTEELFKFKREKGLLTLKNDVEFEPLRKKIPQIISRMDQIISKNIKMPSLCMTNDGLDERCISAKRIDSLYYENQHLRGLLADNMKDVKELSSQLSEASKEMSIQLSSEDDLLRQIAKIKEEYEDLQIEAGVRDGVYQTITRKLLDDSMNSMHDAATNFSTELSSLEAMISEKEKALCLSNEENRMLKEKIAELEQCLIQDKQEDPEVIKQESTEIILRDIEVAPHISPRRSHETPKQDMQYDELVKLNSSLEIASAALKEVENKNIDYNGIFTKNEQEKQLECILISIMKLSKEFVEIEQKLSVER
notes: prey, AD fusion; also called PN26317
- binding result (Os018989-4003 aa 90-220): binds

B18: OsMADS5 aa 121-225 (other)
chain: LSLKELEQLENQIEISLMNIRSSKNQQLLDQVFELKRKEQQLQDANKDLKRKIQETSGENMLHISCQDVGPSGHASEANQEFLHHAICDPSLHIGYQAYMDHLNQ
notes: prey, AD fusion; also called PN20770
- binding result (OsRAP1B aa 30-180): binds

B19: OsCAA33838 aa 5-155 (other)
chain: VFSRFSIYFCVLLLCHGSMAQLFNPSTNPWHSPRQGSFRECRFDRLQAFEPLRKVRSEAGVTEYFDEKNELFQCTGTFVIRRVIQPQGLLVPRYTNIPGVVYIIQGRGSMGLTFPGCPATYQQQFQQFSSQGQSQSQKFRDEHQKIHQFRQ
notes: prey, AD fusion; also called PN24775; O. sativa Glutelin CAA33838
- binding result (OsPP2A-2 aa 150-308): binds

B20: OsPN24162 aa 28-164 (other)
chain: QKLTVSTVSSSGVGLTSTAVKKGGLYTLDVSSVYKYKSTLVDVKVDTESNISTTLTVFDVLPSTKLVTSVKLPDYNSGKVEMQYFHENASFATAVGMKPSPVVEFSGTAGAQGLAFGAEAGFDTATGKFTKYSAAIG
notes: prey, AD fusion; also called Novel Protein PN24162, Porin-like, Voltage-Dependent Anion Channel Protein
- binding result (OsPP2A-2 aa 150-308): binds
